Source: patent US20130079286A1 (Pieris, published 2013)

Key:
[1] = target: T1, biotinylated Aβ40 peptide (human, C-terminal biotin group attached via a lysine spacer); assay: capture ELISA: mutein captured via Strep-tag II on StrepMAB-Immo, biotinylated Aβ40 titrated
T1 construct: Synthetic peptide (Peptide Speciality Laboratory) with a C-terminal biotin on a lysine spacer; used in the capture ELISAs
Description: (§1) FIG. 5 depicts the binding activity of the Lcn2 muteins H1-G1, S1-A4, and US7 in capture ELISAs with different biotinylated Aβ targets. StrepMAB-Immo at 10 μg/ml was immobilized on microtitre plates and employed for capturing of 1 JAM Lcn2 muteins via the Strep-tag H. In figures A to C the binding of the Lcn2 muteins S1-A4 and US7 to (A) biotinylated Aβ40, (B) biotinylated Trx-Aβ28, and (C) biotinylated MBP-Aβ40 are shown. Binding was detected by incubation with ExtrAvidin/AP and a subsequent chromogenic reaction with pNPP. Ovalbumin (Ova), thioredoxin (Trx), and maltose binding protein (MBP) were used as negative controls. Additionally, binding of wild-type (wt) lipocalin was tested. The data were fitted to a monovalent binding model.
(§2) For selective capturing of the Lcn2 muteins carrying the C-terminal Strep-tag II (Schmidt and Skerra (2007) Nat. Protoc. 2, 1528-1535), a 96-well MaxiSorp polystyrene microtitre plate (Nunc, Langenselbold, Germany) was coated with 10 μg/mL StrepMAB-Immo (IBA, Göttingen, Germany) in PBS over night at 4° C. and blocked with 3% (w/v) BSA in PBS/T at room temperature for 1 h. After 3 washing steps with PBS/T, 50 μL of a 1 μM solution of the purified Lcn2 muteins from Example 7 were applied to all wells for 1 h. After washing, 50 μL of a dilution series of the biotinylated targets Aβ40, MBP-Aβ40 or Trx-Aβ28 from Example 2 were added and incubated for 1 h whereby the biotinylated forms of Ova, MBP and Trx from Example 2 served as negative control proteins. The wells were washed again and bound conjugate was detected with 50 μL of ExtrAvidin/AP conjugate (Sigma-Aldrich, Steinheim, Germany) diluted 1:5000 in PBS/T for 1 h, followed by signal development in the presence of 100 μL 0.5 mg/mL p-nitrophenyl phosphate (AppliChem, Darmstadt, Germany) in 100 mM Tris/HCl, pH 8.8, 100 mM NaCl, 5 mM MgCl₂.

[2] = target: T2, MBP-Aβ40 fusion protein; assay: SPR (Biacore), MBP-Aβ40 amine-coupled (1455 RU), mutein as analyte
T2 construct: the entry may be a nucleic acid; Biotin-labelled in the capture ELISA, unlabeled in the direct ELISA and SPR; also called MBP-Abeta40
Description: (§3) FIG. 8 depicts the kinetic real time analysis of Lcn2 muteins S1-A4 (A) and US7 (B) measured on a Biacore instrument at a flow rate of 10 μl/min. The MBP-Aβ40 fusion protein was coupled via amine chemistry on a CMD 200I chip (ΔRU=1455) and each of the purified Lcn2 muteins was applied in a series at different concentrations. The measured signal is shown as a grey line whereas the curve fit is depicted as a black line in each case.
(§4) Real time analysis of Lcn2 muteins was performed on a Biacore X system (Biacore, Uppsala, Sweden) using PBS/T (PBS containing 0.005% (v/v) Tween 20) as running buffer. A 50 μg/mL solution of MBP-Aβ40 from Example 2 in 10 mM Na-acetate, pH 4.5 was immobilized onto a […] chip (Xantec, Düsseldorf, Germany) using standard amine coupling chemistry, resulting in a ligand density of 1455 resonance units (RU). […] The sensorgrams were corrected by subtraction of the corresponding signals measured for the control channel, which had been activated and blocked with ethanolamine. […] During this step the kₒₙ and koff rates were fitted globally, while the maximum response difference Rₘₐₓ was fitted locally for each curve.

[3] = target: T2, MBP-Aβ40 fusion protein; assay: SPR (Biacore X), MBP-Aβ40 amine-coupled, mutein as analyte
Description: as §4

[4] = target: T2, MBP-Aβ40 fusion protein; assay: capture ELISA: mutein captured, biotinylated MBP-Aβ40 titrated
Description: as §1
For selective capturing of the Lcn2 muteins carrying the C-terminal Strep-tag II (Schmidt and Skerra (2007) Nat. Protoc. 2, 1528-1535), a 96-well MaxiSorp polystyrene microtitre plate (Nunc, Langenselbold, Germany) was coated with 10 μg/mL StrepMAB-Immo (IBA, Göttingen, Germany) in PBS over night at 4° C. and blocked with 3% (w/v) BSA in PBS/T at room temperature for 1 h. After 3 washing steps with PBS/T, 50 μL of a 1 μM solution of the purified Lcn2 muteins from Example 7 were applied to all wells for 1 h. […]

[5] = target: T2, MBP-Aβ40 fusion protein; assay: direct ELISA: MBP-Aβ40 coated, mutein titrated, detected via Strep-tag II
Description: The Aβ targets Trx-Aβ28 and MBP-Aβ40 as well as the control protein maltose binding protein (MBP) were immobilized at 2 μM in PBS over night. Bound Lcn2 muteins were detected via their Strep-tag II using Streptavidin/AP followed by a chromogenic reaction with pNPP. As a control, the binding of wild-type (wt) lipocalin was tested. The data were fitted to a monovalent binding model.
Alternatively, for a “direct” ELISA, 2 μM unlabeled Aβ40 target from Example 2 was adsorbed onto a 96-well MaxiSorp polystyrene microliter plate (Nunc, Langenselbold, Germany) and incubated with the purified Lcn2 mutein, which was detected via the Strep-tag II using a 1:1500 dilution of Streptavidin/AP conjugate (GE Healthcare UK Ltd, Buckinghamshire, UK). As a control, 2 μM MBP from Example 2 was adsorbed onto the ELISA plate. Absorption at 405 nm was measured in a SpectraMax 250 reader (Molecular Devices, Sunnyvale, USA).

[6] = target: T2, MBP-Aβ40 fusion protein; assay: SPR (Biacore), MBP-Aβ40 amine-coupled; same experiment as the 1st table, row 20, column 2, printed with more digits
Description: as §3, §4

[7] = target: T3, Trx-Aβ28 fusion protein (Escherichia coli (strain K12), UniProt P0AA25 1-76 = thioredoxin, Biotin-labelled through an NHS ester (2:1) in the capture and competitive ELISAs; unlabeled in the direct ELISA and as competitor.); assay: competitive ELISA: mutein captured, 5 nM biotinylated Trx-Aβ28 as tracer, unlabeled Trx-Aβ28 varied as competitor
T3 construct: the entry may be a nucleic acid; also called TrxAbeta28H6

[8] = target: T4, ovalbumin (UniProt P01012 2-386); assay: capture ELISA: 1 µM Lcn2 protein captured via Strep-tag II on coated StrepMAB-Immo, biotinylated target titrated, ExtrAvidin/AP + pNPP
T4 sequence (looked up): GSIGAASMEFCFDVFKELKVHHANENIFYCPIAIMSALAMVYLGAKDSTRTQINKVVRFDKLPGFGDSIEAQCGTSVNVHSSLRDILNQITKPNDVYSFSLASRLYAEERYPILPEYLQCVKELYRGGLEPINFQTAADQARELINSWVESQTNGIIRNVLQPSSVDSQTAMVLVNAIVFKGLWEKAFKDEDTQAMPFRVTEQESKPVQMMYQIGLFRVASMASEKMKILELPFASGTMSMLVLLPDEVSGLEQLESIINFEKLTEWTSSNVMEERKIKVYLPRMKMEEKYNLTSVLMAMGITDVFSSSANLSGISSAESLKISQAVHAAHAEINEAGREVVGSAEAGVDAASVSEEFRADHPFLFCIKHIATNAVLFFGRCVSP
Description: as §1, §2

[9] = target: T5, central peptide Aβ16-27; assay: capture ELISA: mutein captured, Aβ16-27 titrated
T5 construct: Bought from the Peptide Speciality Laboratory
T5 peptide: KLVFFAEDVGSN

T1 sequence (peptide, as listed by the source): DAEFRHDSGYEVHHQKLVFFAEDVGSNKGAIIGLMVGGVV

B1: Lcn2 mutein S1-A4 (designed binder)
chain: QDSTSDLIPAPPLSKVPLQQNFQDNQFHGKWYVVGVAGNYTLREDKDPLKMYATIYELKEDKSYNVTSVGFRLKKCNYKIRTFVPGSQPGEFTLGIIKSQPGMTSYLVRVVSTNYNQHAMVFFKTVGQNREMFNITLYGRTKELTSELKENFIRFSKSLGLPENHIVFPVPIDQCIDG
[1]
  Kd: 2.7 nM
[2]
  koff: 8.36e-05 s⁻¹
  kon: 48000 M⁻¹ s⁻¹
[3]
  Kd: 1.7 nM
[4]
  Kd: 4.7 nM
[5]
  Kd: 149 nM
[6]
  Kd: 1.74 nM
[7]
  Kd: 21.7 nM
[8]
  binding result: no binding (tested: 250 nM)
[9]
  Kd: 2.6 nM
